Paper PMC4331669, “Phosphatidylinositol binding of Saccharomyces cerevisiae Pdr16p represents an essential feature of this lipid transfer protein to provide protection against azole antifungals” (Biochimica et Biophysica Acta. Molecular and Cell Biology …, 2014)

Target: the molecule itself
Experiment: SEC; Superose 12 10/300 GL, 20 mM PIPES pH 6.8, 250 mM NaCl, 2.7 mM KCl, 0.4 ml/min; BSA and ovalbumin as molecular weight standards; apparent mass about 90 kDa against a predicted monomer of 40.7 kDa

| Protein | stoichiometry N |
| --- | --- |
| Pdr16p (wild-type, recombinant Pdr16-His) (natural protein, S. cerevisiae, UniProt P53860 1-351, looked up, Pdr16p (Sfh3p) of Saccharomyces cerevisiae, ORF PDR16 amplified from YEplac181-PDR16 and inserted between NdeI and NotI of pET26; predicted monomer mass 40.7 kDa; The whole ORF was cloned NdeI-NotI into pET26 with a C-terminal 6xHis; No removal of the tag is described; also called Sfh3p; source: E. coli Rosetta, purified (Ni-NTA agarose)) MFKRFSKKKEAPEDPKNLINIDKPIKELPASIAIPKEKPLTGEQQKMYDEVLKHFSNPDLKVYTSEKNKSEDDLKPLEEEEKAWLTRECFLRYLRATKWVLKDCIDRITMTLAWRREFGISHLGEEHGDKITADLVAVENESGKQVILGYENDARPILYLKPGRQNTKTSHRQVQHLVFMLERVIDFMPAGQDSLALLIDFKDYPDVPKVPGNSKIPPIGVGKEVLHILQTHYPERLGKALLTNIPWLAWTFLKLIHPFIDPLTREKLVFDEPFVKYVPKNELDSLYGGDLKFKYNHDVYWPALVETAREKRDHYFKRFQSFGGIVGLSEVDLRGTHEKLLYPVKSESSTV | 2 |
| Pdr16p^(E235A, K267A) (recombinant Pdr16^(E235A, K267A)-His) (natural protein, S. cerevisiae, UniProt P53860 1-351, looked up, Same construct as m1 with the two point mutations; source: E. coli Rosetta, purified (Ni-NTA agarose)) MFKRFSKKKEAPEDPKNLINIDKPIKELPASIAIPKEKPLTGEQQKMYDEVLKHFSNPDLKVYTSEKNKSEDDLKPLEEEEKAWLTRECFLRYLRATKWVLKDCIDRITMTLAWRREFGISHLGEEHGDKITADLVAVENESGKQVILGYENDARPILYLKPGRQNTKTSHRQVQHLVFMLERVIDFMPAGQDSLALLIDFKDYPDVPKVPGNSKIPPIGVGKEVLHILQTHYPARLGKALLTNIPWLAWTFLKLIHPFIDPLTREALVFDEPFVKYVPKNELDSLYGGDLKFKYNHDVYWPALVETAREKRDHYFKRFQSFGGIVGLSEVDLRGTHEKLLYPVKSESSTV | 2 |
